Laboratory results: the supplement of paper PMC10899765

Key:
Details in all cases: 20 nM; 72 h
MCF10A [1] = assay: 5+ nucleoli phenotype percent effect (relative to siNT 0% and siKIF11 100%); higher = more cells with five or more nucleoli
Protocol: (§1)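 After 72 h, cells were fixed and stained with Hoechst and anti-fibrillarin, and nucleoli per nucleus were counted with CellProfiler. Values are plate-adjusted percent effect for the one-nucleolus and 5+ nucleoli phenotypes, normalised to siNT (0%) and to the positive controls siNOL11 or siKIF11 (100%), as the mean of biological triplicates. Percent viability is the nuclei count relative to siNT.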

MCF10A [2] = assay: one-nucleolus phenotype percent effect (relative to siNT 0% and siNOL11 100%); higher = more cells with one nucleolus (ribosome biogenesis inhibition)
Protocol: as §1

MCF10A [3] = assay: percent viability (nuclei count relative to siNT); higher = more viable cells
Protocol: as §1

Row | Sequence | 5+ nucleoli phenotype percent effect (MCF10A [1]) [%] | one-nucleolus phenotype percent effect (MCF10A [2]) [%] | percent viability (MCF10A [3]) [%]
1 | CACCUUGCGCUACUCAGGUCUG [hsa-miR-3200-3p] | -0.139 | -8.76 | 24.5
2 | UGCUGUAUUGUCAGGUAGUGA [hsa-miR-4999-5p] | -10.3 | -7.82 | 48.1
3 | GCUCUGACUUUAUUGCACUACU [hsa-miR-301a-5p] | 59.9 | -23.6 | 68.8
4 | GCUGAACUGGGCUGAGCUGGGC [hsa-miR-4539] | -5.15 | -1.34 | 87
5 | AUCAGGGCUUGUGGAAUGGGAAG [hsa-miR-3127-5p] | -23.4 | 49.5 | 18.4
6 | UUCCGCCAGUCGGUGGCCGG [hsa-miR-6084] | 0.691 | -5.3 | 90.2
7 | ACAAAGUGCUUCCCUUUAGAGU [hsa-miR-520h] | 11.9 | -15 | 173
8 | UCGCGGUUUGUGCCAGAUGACG [hsa-miR-579-5p] | 41.8 | -22.2 | 64.6
9 | UAACAGUCUCCAGUCACGGCC [hsa-miR-212-3p] | 29.7 | -19.5 | 219
10 | GCUAGUCCUGACUCAGCCAGU [hsa-miR-554] | 10.2 | -12.9 | 67.7
11 | AUCCCACCUCUGCCACCA [hsa-miR-1260a] | 24.8 | -2.14 | 42.3
12 | CGCUUUGCUCAGCCAGUGUAG [hsa-miR-1251-3p] | -13.1 | 18.6 | 76.2
13 | CGCAUCCCCUAGGGCAUUGGUGU [hsa-miR-324-5p] | 21.4 | -15.6 | 76.6
14 | UUCCUUCUGUUGUCUGUGCAG [hsa-miR-6868-3p] | -19.2 | -3.76 | 28.1
15 | AUCGUGCAUCCUUUUAGAGUGU [hsa-miR-517c-3p] | -11.3 | 11.8 | 41.6
16 | CCACCAGGUCUAGCAUUGGGAU [hsa-miR-4733-3p] | -9.32 | 12.6 | 29.8
17 | UGCAGCUCUGGUGGAAAAUGGAG [hsa-miR-4660] | -12.2 | 1.97 | 43.5
18 | AGGGCCCCCCCUCAAUCCUGU [hsa-miR-296-5p] | 11.6 | 2.62 | 49.5
19 | UGGGUAGAGAAGGAGCUCAGAGGA [hsa-miR-3132] | 62.9 | 1.88 | 21.4
20 | AGGCAUGGGAGGUCAGGUGA [hsa-miR-3622b-5p] | -30.6 | 32.5 | 16.5
21 | CGGUGAGCGCUCGCUGGC [hsa-miR-4792] | -30.2 | 21.1 | 36.6
22 | UGGUGGGCACAGAAUCUGGACU [hsa-miR-541-3p] | -0.0057 | 17.6 | 24.6
23 | CAGAAGGGGAGUUGGGAGCAGA [hsa-miR-3154] | -26.4 | 46.1 | 17.4
24 | UGCAUCAGGCCAGAAGACAUGAG [hsa-miR-4711-5p] | -36.8 | 12.6 | 23.9

Row | Sequence | 5+ nucleoli phenotype percent effect (MCF10A [1]) [%] | one-nucleolus phenotype percent effect (MCF10A [2]) [%] | percent viability (MCF10A [3]) [%]
25 | CUUUUUGCGGUCUGGGCUUGC [hsa-miR-129-5p] | -6.61 | 8.91 | 39.8
26 | UAGGCCACAGCCACCCAUGUGU [hsa-miR-4717-5p] | -6.97 | -8.66 | 23.3
27 | GUGCUUCAUCGUAAUUAACCUUA [hsa-miR-3977] | -18.9 | 2.65 | 49
28 | UAGCACCAUCUGAAAUCGGUUA [hsa-miR-29a-3p] | 46.9 | -24 | 65.1
29 | UCUGAGUUCCUGGAGCCUGGUCU [hsa-miR-4682] | 18.8 | -20 | 104
30 | UGUGACUUUAAGGGAAAUGGCG [hsa-miR-3164] | 22 | 19.5 | 22.9
31 | ACAUUGCCAGGGAGUUU [hsa-miR-4317] | -11 | -2.43 | 45.1
32 | GUGUGACCACCGUUCCUGCAG [hsa-miR-6808-3p] | -25.4 | 28.3 | 27.3
33 | ACAAGGUGUGCAUGCCUGACC [hsa-miR-4761-5p] | -24.8 | 53.7 | 18.1
34 | UGGCCCUGACUGAAGACCAGCAGU [hsa-miR-1291] | 23.5 | 5.12 | 51
35 | UCGUUUGCCUUUUUCUGCUU [hsa-miR-1282] | 5.62 | -8.15 | 84.2
36 | AAAAGUAACUAUGGUUUUUGCC [hsa-miR-548bb-5p] | 30.8 | -28.8 | 138
37 | UCUCAGGAGUAAAGACAGAGUU [hsa-miR-3664-3p] | 17.2 | -19.4 | 86.7
38 | CAAAAACCGCAAUUACUUUUGCA [hsa-miR-548h-3p] | -11 | -6.67 | 52
39 | AGGUAGACUGGGAUUUGUUGUU [hsa-miR-3529-5p] | -26.7 | 27.4 | 21.7
40 | CGGGGUCGGCGGCGACGUG [hsa-miR-7704] | 9.03 | -0.45 | 38.3
41 | UUUGGCAAUGGUAGAACUCACACU [hsa-miR-182-5p] | 13.1 | 25 | 22.8
42 | UGCUUAAGUUGUACCAAGUAU [hsa-miR-4720-3p] | -20.7 | 7.73 | 53.4
43 | GGAGUGGGCUGGUGGUU [hsa-miR-4481] | 6.11 | 5.61 | 37.8
44 | UGGCCGGAUGGGACAGGAGGCAU [hsa-miR-4743-5p] | -11.6 | 20.6 | 25.6
45 | UGCACCAUGGUUGUCUGAGCAUG [hsa-miR-767-5p] | 8.28 | -10.3 | 65.4
46 | ACCUUGCCUUGCUGCCCGGGCC [hsa-miR-1915-5p] | -40.4 | 39.7 | 34.9
47 | AAAGUGCUUCUCUUUGGUGGGU [hsa-miR-520d-3p] | 58.4 | -16.1 | 74.3
48 | GCGACCCAUACUUGGUUUCAG [hsa-miR-551b-3p] | 23.7 | -14.5 | 111
